Assay results: patent publication US7674604

What was measured:
[1] = target: LFA-1 mutant L289C/K294C (αL L289C/K294C with β2) on 293T or K562 transfectants (human) (UniProt P05107); test: flow cytometry, K562, normalized to TS2/4
[2] = target: LFA-1 mutant K287C/K294C (αL K287C/K294C with β2) on 293T or K562 transfectants (human) (UniProt P05107); test: flow cytometry, K562, normalized to TS2/4
[3] = target: LFA-1 mutant L289C/K294C (αL L289C/K294C with β2) on 293T or K562 transfectants (human) (UniProt P05107); test: flow cytometry, 293T, normalized to TS2/4
[4] = target: LFA-1 mutant K287C/K294C (αL K287C/K294C with β2) on 293T or K562 transfectants (human) (UniProt P05107); test: flow cytometry, 293T, normalized to TS2/4
[5] = target: LFA-1 single cysteine substitution mutant K287C on 293T transfectants (human) (UniProt P05107); test: flow cytometry, 293T, normalized to TS2/4
[6] = target: LFA-1 single cysteine substitution mutant L289C on 293T transfectants (human) (UniProt P05107); test: flow cytometry, 293T, normalized to TS2/4
[7] = target: LFA-1 single cysteine substitution mutant K294C on 293T transfectants (human) (UniProt P05107); test: flow cytometry, 293T, normalized to TS2/4
[8] = target: isolated wild-type αL I-domain (V130-A338) expressed on K562 cells by the PDGF receptor transmembrane domain (human); test: flow cytometry on K562 transfectants, panel 'WT I-domain (#1)'
[9] = target: isolated wild-type αL I-domain (V130-A338) expressed on K562 cells by the PDGF receptor transmembrane domain (human); test: flow cytometry on K562 transfectants, panel 'WT I-domain (#2)'; nothing is printed after the point
[10] = target: isolated L289C/K294C αL I-domain (V130-A338) expressed on K562 cells by the PDGF receptor transmembrane domain (human) (UniProt P20701); test: flow cytometry on K562 transfectants, panel 'L289C/K294C I-domain (#2)'
[11] = target: isolated L289C/K294C αL I-domain (V130-A338) expressed on K562 cells by the PDGF receptor transmembrane domain (human) (UniProt P20701); test: flow cytometry on K562 transfectants, panel 'L289C/K294C I-domain (#1)'
[12] = target: isolated K287C/K294C αL I-domain (V130-A338) expressed on K562 cells by the PDGF receptor transmembrane domain (human) (UniProt P20701); test: flow cytometry on K562 transfectants, panel 'K287C/K294C I-domain (#2)'
[13] = target: wild-type LFA-1 (αL/β2 complex) expressed on 293T or K562 transfectants (human) (UniProt P05107); test: flow cytometry on K562 transfectants, panel 'intact LFA-1'
[14] = target: isolated K287C/K294C αL I-domain (V130-A338) expressed on K562 cells by the PDGF receptor transmembrane domain (human) (UniProt P20701); test: flow cytometry on K562 transfectants, panel 'K287C/K294C I-domain (#1)'
[15] = target: LFA-1 mutant K287C/K294C (αL K287C/K294C with β2) on 293T or K562 transfectants (human) (UniProt P05107); test: flow cytometry, K562, normalized to TS1/22
[16] = target: Mac-1 mutant D294C/Q311C (with β2) on K562 transfectants (human) (UniProt P05107); test: flow cytometry on K562 stable transfectants with intact Mac-1, row 'D294C/Q311C'
[17] = target: Mac-1 mutant Q163C/Q309C (αM Q163C/Q309C with β2) on 293T or K562 transfectants (human) (UniProt P05107); test: flow cytometry on K562 stable transfectants with intact Mac-1, row printed 'Q163/Q309C'
[18] = target: wild-type Mac-1 (αMβ2) on 293T or K562 transfectants (human) (UniProt P05107); test: flow cytometry on K562 stable transfectants with intact Mac-1, row 'Wild-type'
[19] = target: LFA-1 mutant L289C/K294C (αL L289C/K294C with β2) on 293T or K562 transfectants (human) (UniProt P05107); test: flow cytometry, K562 L289C K294C (#6), ICAM-1-IgA 100 µg/ml, FITC anti-human IgA, taken after paragraph 201 as ICAM-1-IgA without CBRLFA-1/2; left column of this row, taken as no ICAM-1-IgA: 4.68
[20] = target: LFA-1 mutant L289C/K294C (αL L289C/K294C with β2) on 293T or K562 transfectants (human) (UniProt P05107); test: flow cytometry, K562 L289C K294C (#6), ICAM-1-IgA 100 µg/ml, FITC anti-human IgA, taken after paragraph 201 as ICAM-1-IgA with CBRLFA-1/2 10 µg/ml; left column of this row, taken as no ICAM-1-IgA: 4.68
[21] = target: wild-type LFA-1 (αL/β2 complex) expressed on 293T or K562 transfectants (human) (UniProt P05107); test: flow cytometry, K562 WT (#22), ICAM-1-IgA 100 µg/ml, FITC anti-human IgA, taken after paragraph 201 as ICAM-1-IgA without CBRLFA-1/2; left column of this row, taken as no ICAM-1-IgA: 3.58
[22] = target: LFA-1 mutant K287C/K294C (αL K287C/K294C with β2) on 293T or K562 transfectants (human) (UniProt P05107); test: flow cytometry, K562 K287C K294C (#7), ICAM-1-IgA 100 µg/ml, FITC anti-human IgA, taken after paragraph 201 as ICAM-1-IgA with CBRLFA-1/2 10 µg/ml; left column of this row, taken as no ICAM-1-IgA: 3.59
[23] = target: LFA-1 mutant K287C/K294C (αL K287C/K294C with β2) on 293T or K562 transfectants (human) (UniProt P05107); test: flow cytometry, K562 K287C K294C (#7), ICAM-1-IgA 100 µg/ml, FITC anti-human IgA, taken after paragraph 201 as ICAM-1-IgA without CBRLFA-1/2; left column of this row, taken as no ICAM-1-IgA: 3.59
[24] = target: wild-type LFA-1 (αL/β2 complex) expressed on 293T or K562 transfectants (human) (UniProt P05107); test: flow cytometry, K562 WT (#22), ICAM-1-IgA 100 µg/ml, FITC anti-human IgA, taken after paragraph 201 as ICAM-1-IgA with CBRLFA-1/2 10 µg/ml; left column of this row, taken as no ICAM-1-IgA: 3.58

soluble ICAM-1-IgA chimera containing the 5 Ig domains of human ICAM-1, sequence (P05362 28-480, stated change not applied): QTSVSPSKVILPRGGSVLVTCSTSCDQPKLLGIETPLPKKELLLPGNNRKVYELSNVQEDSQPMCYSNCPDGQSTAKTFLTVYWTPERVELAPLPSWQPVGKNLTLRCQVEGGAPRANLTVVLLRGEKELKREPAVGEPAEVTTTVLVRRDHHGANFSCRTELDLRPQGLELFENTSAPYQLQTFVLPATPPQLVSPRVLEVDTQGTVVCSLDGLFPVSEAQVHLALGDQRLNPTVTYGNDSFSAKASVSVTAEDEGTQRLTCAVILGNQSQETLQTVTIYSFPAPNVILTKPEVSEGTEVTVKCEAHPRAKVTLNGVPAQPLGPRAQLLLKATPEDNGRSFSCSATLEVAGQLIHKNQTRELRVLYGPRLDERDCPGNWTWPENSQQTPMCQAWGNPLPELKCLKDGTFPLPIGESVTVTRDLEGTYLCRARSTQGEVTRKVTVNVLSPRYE
isolated L289C/K294C αL I-domain (V130-A338) expressed on K562 cells by the PDGF receptor transmembrane domain (human), sequence (P20701 155-363 L314C/K319C limits assumed): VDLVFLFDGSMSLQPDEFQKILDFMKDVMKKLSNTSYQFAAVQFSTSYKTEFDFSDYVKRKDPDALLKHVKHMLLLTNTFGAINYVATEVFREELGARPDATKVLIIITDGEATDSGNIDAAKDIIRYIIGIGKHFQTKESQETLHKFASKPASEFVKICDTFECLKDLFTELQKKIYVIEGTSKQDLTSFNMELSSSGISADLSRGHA
isolated K287C/K294C αL I-domain (V130-A338) expressed on K562 cells by the PDGF receptor transmembrane domain (human), sequence (P20701 155-363 K312C/K319C limits assumed): as the sequence (P20701 155-363 L314C/K319C limits assumed) above, with K158C, C160L counted along it
isolated wild-type αL I-domain (V130-A338) expressed on K562 cells by the PDGF receptor transmembrane domain (human), sequence (P09619 other isoform, or with tags, fused parts or gaps): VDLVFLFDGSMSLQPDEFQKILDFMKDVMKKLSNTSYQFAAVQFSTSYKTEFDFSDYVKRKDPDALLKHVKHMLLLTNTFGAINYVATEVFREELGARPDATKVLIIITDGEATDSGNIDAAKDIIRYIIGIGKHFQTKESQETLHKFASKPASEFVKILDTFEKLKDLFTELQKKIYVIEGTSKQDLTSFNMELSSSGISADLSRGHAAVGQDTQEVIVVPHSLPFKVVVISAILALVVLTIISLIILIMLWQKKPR

mouse anti-human αL (CD11a) monoclonal antibody TS1/12
% wild-type binding (% of wild-type) [1]: 106
% wild-type binding (% of wild-type) [2]: 87.3
% wild-type binding (% of wild-type) [3]: 102
% wild-type binding (% of wild-type) [4]: 88.7
% wild-type binding (% of wild-type) [5]: 99.3
% wild-type binding (% of wild-type) [6]: 104
% wild-type binding (% of wild-type) [7]: 93.7

mouse anti-human αL (CD11a) monoclonal antibody TS1/22
mean fluorescent intensity [8]: 67.3
mean fluorescent intensity [9]: 205
% wild-type binding (% of wild-type) [1]: 110
% wild-type binding (% of wild-type) [2]: 93.1
mean fluorescent intensity [10]: 151
% wild-type binding (% of wild-type) [3]: 91
% wild-type binding (% of wild-type) [4]: 95.8
% wild-type binding (% of wild-type) [5]: 103
% wild-type binding (% of wild-type) [6]: 96.2
% wild-type binding (% of wild-type) [7]: 92.2
mean fluorescent intensity [11]: 71.1
mean fluorescent intensity [12]: 84.6
mean fluorescent intensity [13]: 104
mean fluorescent intensity [14]: 66.3

monoclonal antibody 25-3-1
% wild-type binding (% of wild-type) [1]: 85.7
% wild-type binding (% of wild-type) [2]: 88.5
% wild-type binding (% of wild-type) [3]: 90.9
% wild-type binding (% of wild-type) [4]: 93.1

monoclonal antibody BL5
% wild-type binding (% of wild-type) [1]: 97.6
% wild-type binding (% of wild-type) [2]: 92.4
% wild-type binding (% of wild-type) [3]: 85.8
% wild-type binding (% of wild-type) [4]: 92.4
% wild-type binding (% of wild-type) [5]: 93.3
% wild-type binding (% of wild-type) [6]: 92.4
% wild-type binding (% of wild-type) [7]: 88.3

monoclonal antibody S6F1
% wild-type binding (% of wild-type) [1]: 85.7
% wild-type binding (% of wild-type) [2]: 97.4
% wild-type binding (% of wild-type) [3]: 95.3
% wild-type binding (% of wild-type) [4]: 89.4
% wild-type binding (% of wild-type) [5]: 98.3
% wild-type binding (% of wild-type) [6]: 86.4
% wild-type binding (% of wild-type) [7]: 92.3

anti-β2 (CD18) monoclonal antibody CBRLFA-1/7
% wild-type binding (% of wild-type) [1]: 97.2
% wild-type binding (% of wild-type) [2]: 95.2
% wild-type binding (% of wild-type) [3]: 91.7
% wild-type binding (% of wild-type) [4]: 95.3

monoclonal antibody CBRLFA-1/9
% wild-type binding (% of wild-type) [15]: 84.7

mouse anti-human αL (CD11a) monoclonal antibody TS1/11
% wild-type binding (% of wild-type) [1]: 105
% wild-type binding (% of wild-type) [2]: 96
% wild-type binding (% of wild-type) [3]: 93.7
% wild-type binding (% of wild-type) [4]: 94.4

monoclonal antibody May.035
% wild-type binding (% of wild-type) [1]: 101
% wild-type binding (% of wild-type) [2]: 92.6
% wild-type binding (% of wild-type) [3]: 82.1
% wild-type binding (% of wild-type) [4]: 92.6
% wild-type binding (% of wild-type) [5]: 95.8
% wild-type binding (% of wild-type) [6]: 95.4
% wild-type binding (% of wild-type) [7]: 106

monoclonal antibody CBRM1/32
mean fluorescent intensity [16]: 81
mean fluorescent intensity [17]: 115
mean fluorescent intensity [18]: 120

anti-β2 (CD18) monoclonal antibody TS1/18
% wild-type binding (% of wild-type) [1]: 106
% wild-type binding (% of wild-type) [2]: 97.4
% wild-type binding (% of wild-type) [3]: 95.7
% wild-type binding (% of wild-type) [4]: 99.8
% wild-type binding (% of wild-type) [5]: 87.9
% wild-type binding (% of wild-type) [6]: 87.3
% wild-type binding (% of wild-type) [7]: 108

soluble ICAM-1-IgA chimera containing the 5 Ig domains of human ICAM-1 (from UniProt P05362 28-480) (Fc fusion)
mean fluorescent intensity [19]: 5.36
mean fluorescent intensity [20]: 4.32
mean fluorescent intensity [21]: 5.26
mean fluorescent intensity [22]: 41.3
mean fluorescent intensity [23]: 24.8
mean fluorescent intensity [24]: 4.89

monoclonal antibody F8.8
% wild-type binding (% of wild-type) [1]: 93.9
% wild-type binding (% of wild-type) [2]: 102
% wild-type binding (% of wild-type) [3]: 83.6
% wild-type binding (% of wild-type) [4]: 93.7
% wild-type binding (% of wild-type) [5]: 95.9
% wild-type binding (% of wild-type) [6]: 99.6
% wild-type binding (% of wild-type) [7]: 95.5

mouse anti-human αL (CD11a) monoclonal antibody TS2/6
% wild-type binding (% of wild-type) [1]: 95.9
% wild-type binding (% of wild-type) [2]: 89.2
% wild-type binding (% of wild-type) [3]: 78.6
% wild-type binding (% of wild-type) [4]: 84.9
% wild-type binding (% of wild-type) [5]: 91.4
% wild-type binding (% of wild-type) [6]: 88.2
% wild-type binding (% of wild-type) [7]: 91.7

monoclonal antibody CLBLFA-1/1
% wild-type binding (% of wild-type) [1]: 100
% wild-type binding (% of wild-type) [2]: 96.5

mouse anti-human αL (CD11a) monoclonal antibody TS2/14
% wild-type binding (% of wild-type) [1]: 103
% wild-type binding (% of wild-type) [2]: 95.4
% wild-type binding (% of wild-type) [3]: 83.3
% wild-type binding (% of wild-type) [4]: 85.5
% wild-type binding (% of wild-type) [5]: 103
% wild-type binding (% of wild-type) [6]: 100
% wild-type binding (% of wild-type) [7]: 103

monoclonal antibody CBRM1/5
mean fluorescent intensity [16]: 262
mean fluorescent intensity [17]: 208
mean fluorescent intensity [18]: 25
